US20260315572 (published 2026)
Starred links: 1 amine or outer side, 2 acyl side, 3 side chain; linkers in the order of their positions; H or OH if unused. Non-standard residues stand in square brackets, D forms with d. Groups on a side chain read outwards from the residue. No end group written: not given here. *: point of attachment. C20 diacid = O=C(O)CCCCCCCCCCCCCCCCCCC(=O)*; γGlu = O=C(O)[C@H](CCC(=O)[*:2])N[*:1]; AEEA = NCCOCCOCC(=O)O; Aib = CC(C)(N)C(=O)O

What was measured:
[1] = target: T1, hGLP-1R (human, UniProt P43220); assay: competition, [125I]-GLP-1 radioligand
T1 chain: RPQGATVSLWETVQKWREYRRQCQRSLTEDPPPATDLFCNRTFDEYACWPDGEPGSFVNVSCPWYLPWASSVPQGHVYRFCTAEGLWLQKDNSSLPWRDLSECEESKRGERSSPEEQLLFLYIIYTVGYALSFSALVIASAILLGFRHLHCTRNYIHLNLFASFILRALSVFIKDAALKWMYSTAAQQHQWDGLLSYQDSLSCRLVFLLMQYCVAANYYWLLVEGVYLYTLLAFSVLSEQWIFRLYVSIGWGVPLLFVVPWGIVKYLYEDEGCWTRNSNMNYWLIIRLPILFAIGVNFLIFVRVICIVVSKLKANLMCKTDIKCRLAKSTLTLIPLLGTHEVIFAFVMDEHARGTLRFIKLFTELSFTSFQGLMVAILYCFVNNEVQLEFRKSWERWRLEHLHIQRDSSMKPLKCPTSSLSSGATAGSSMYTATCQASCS

[2] = target: hGCGR (human, UniProt P47871); assay: competition, [125I]-glucagon radioligand
hGCGR, sequence (P47871 26-477): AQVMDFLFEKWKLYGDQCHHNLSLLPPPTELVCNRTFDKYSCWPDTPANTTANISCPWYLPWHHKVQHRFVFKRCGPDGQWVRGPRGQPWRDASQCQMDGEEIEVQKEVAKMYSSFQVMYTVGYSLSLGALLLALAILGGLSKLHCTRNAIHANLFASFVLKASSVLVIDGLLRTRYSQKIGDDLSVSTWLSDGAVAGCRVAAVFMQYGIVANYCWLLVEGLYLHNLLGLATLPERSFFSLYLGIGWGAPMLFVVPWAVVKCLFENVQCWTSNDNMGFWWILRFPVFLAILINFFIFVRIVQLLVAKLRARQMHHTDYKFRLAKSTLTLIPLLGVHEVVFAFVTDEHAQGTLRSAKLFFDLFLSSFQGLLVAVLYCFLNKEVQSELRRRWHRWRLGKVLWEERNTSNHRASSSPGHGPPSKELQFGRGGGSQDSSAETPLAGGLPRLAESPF

[3] = target: T2, hGIPR (human, UniProt P48546); assay: competition, [125I]-GIP radioligand
T2 chain: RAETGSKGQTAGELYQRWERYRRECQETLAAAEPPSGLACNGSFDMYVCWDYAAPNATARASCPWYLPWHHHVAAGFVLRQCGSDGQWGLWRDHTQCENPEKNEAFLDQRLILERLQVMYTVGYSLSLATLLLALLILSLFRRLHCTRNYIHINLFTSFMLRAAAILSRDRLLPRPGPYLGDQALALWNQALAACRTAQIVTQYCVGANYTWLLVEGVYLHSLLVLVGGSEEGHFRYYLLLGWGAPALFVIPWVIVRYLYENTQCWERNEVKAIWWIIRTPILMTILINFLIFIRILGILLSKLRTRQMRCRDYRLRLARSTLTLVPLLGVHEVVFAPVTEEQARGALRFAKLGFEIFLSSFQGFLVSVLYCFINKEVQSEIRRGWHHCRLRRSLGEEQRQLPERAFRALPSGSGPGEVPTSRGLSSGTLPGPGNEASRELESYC

B1: Example 1 (peptide)
chain: Y[Aib]EGTFTSDYSI[Aib]LDKIAQK([AEEA-AEEA-γGlu-C20 diacid])AFVQWLIAGGP-OH
modifications: N-terminus assumed
SMILES: CC[C@H](C)[C@H](NC(=O)[C@H](CC(C)C)NC(=O)[C@H](Cc1c[nH]c2ccccc12)NC(=O)[C@H](CCC(N)=O)NC(=O)[C@@H](NC(=O)[C@H](Cc1ccccc1)NC(=O)[C@H](C)NC(=O)[C@H](CCCCNC(=O)COCCOCCNC(=O)COCCOCCNC(=O)CC[C@H](NC(=O)CCCCCCCCCCCCCCCCCCC(=O)O)C(=O)O)NC(=O)[C@H](CCC(N)=O)NC(=O)[C@H](C)NC(=O)[C@@H](NC(=O)[C@H](CCCCN)NC(=O)[C@H](CC(=O)O)NC(=O)[C@H](CC(C)C)NC(=O)C(C)(C)NC(=O)[C@@H](NC(=O)[C@H](CO)NC(=O)[C@H](Cc1ccc(O)cc1)NC(=O)[C@H](CC(=O)O)NC(=O)[C@H](CO)NC(=O)[C@@H](NC(=O)[C@H](Cc1ccccc1)NC(=O)[C@@H](NC(=O)CNC(=O)[C@H](CCC(=O)O)NC(=O)C(C)(C)NC(=O)[C@@H](N)Cc1ccc(O)cc1)[C@@H](C)O)[C@@H](C)O)[C@@H](C)CC)[C@@H](C)CC)C(C)C)C(=O)N[C@@H](C)C(=O)NCC(=O)NCC(=O)N1CCC[C@H]1C(=O)O
Binder B1 has a Ki [1] of 10.9 nM, a Ki [2] greater than 240 nM and a Ki [3] of 0.32 nM.
